Source: patent publication US11833164B2, “Methods of treating Fabry disease in patients having a mutation in the GLA gene” (Amicus Therapeutics, Inc., priority 2019, dated 2023)

Test system: mutant form of α-Gal A expressed in HEK-293 cells
Test: HEK assay (GLP HEK / Migalastat Amenability Assay): α-Gal A activity in lysates of transiently transfected HEK-293 cells incubated with or without 10 μM migalastat
Type: cell-based, human
Conditions: for Absolute increase (% WT) / Relative increase: 10 μM migalastat versus baseline; for Baseline α-Gal A activity (% WT): absence of migalastat; for Baseline α-Gal A activity (% WT) / 10 μM migalastat α-Gal A activity (% WT): percentage of baseline wild-type α-Gal A activity; for Baseline α-Gal A activity (% WT) / Baseline α-Gal A activity / 10 μM migalastat α-Gal A activity / 10 μM migalastat α-Gal A activity (% WT): mean ± SEM; for Baseline α-Gal A activity / 10 μM migalastat α-Gal A activity: lysates of HEK-293 cells transiently transfected with the mutant form; for Baseline α-Gal A activity: incubated 5 days in absence of migalastat; for 10 μM migalastat α-Gal A activity: incubated 5 days with 10 μM migalastat; for 10 μM migalastat α-Gal A activity (% WT): with 10 μM migalastat, 5 days
Procedure, shortened: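 Activity reported as 4-MU released (nmol/mg/hr), mean±SEM, from lysates of transiently transfected HEK-293 cells expressing mutant α-Gal A, cultured with or without 10 μM migalastat.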

B1: K308Q (protein)
chain: MQLRNPELHLGCALALRFLALVSWDIPGARALDNGLARTPTMGWLHWERFMCNLDCQEEPDSCISEKLFMEMAELMVSEGWKDAGYEYLCIDDCWMAPQRDSEGRLQADPQRFPHGIRQLANYVHSKGLKLGIYADVGNKTCAGFPGSFGYYDIDAQTFADWGVDLLKFDGCYCDSLENLADGYKHMSLALNRTGRSIVYSCEWPLYMWPFQKPNYTEIRQYCNHWRNFADIDDSWKSIKSILDWTSFNQERIVDVAGPGGWNDPDMLVIGNFGLSWNQQVTQMALWAIMAAPLFMSNDLRHISPQAQALLQDKDVIAINQDPLGKQGYQLRQGDNFEVWERPLSGLAWAVAMINRQEIGGPRSYTIAVASLGKGVACNPACFITQLLPVKRKLGFYEWTSRLRSHINPTGTVLLQLENTMQMSLKDLL
Absolute increase (% WT): 30.0 % WT
Relative increase: 1.5
Baseline α-Gal A activity (% WT): 59.1 ± 3.8 % WT
Baseline α-Gal A activity: 24208 ± 1996 nmol/mg/h
10 μM migalastat α-Gal A activity: 35663 ± 2680 nmol/mg/h
10 μM migalastat α-Gal A activity (% WT): 89.1 ± 5.5 % WT

B2: L310I (protein)
chain: MQLRNPELHLGCALALRFLALVSWDIPGARALDNGLARTPTMGWLHWERFMCNLDCQEEPDSCISEKLFMEMAELMVSEGWKDAGYEYLCIDDCWMAPQRDSEGRLQADPQRFPHGIRQLANYVHSKGLKLGIYADVGNKTCAGFPGSFGYYDIDAQTFADWGVDLLKFDGCYCDSLENLADGYKHMSLALNRTGRSIVYSCEWPLYMWPFQKPNYTEIRQYCNHWRNFADIDDSWKSIKSILDWTSFNQERIVDVAGPGGWNDPDMLVIGNFGLSWNQQVTQMALWAIMAAPLFMSNDLRHISPQAKAILQDKDVIAINQDPLGKQGYQLRQGDNFEVWERPLSGLAWAVAMINRQEIGGPRSYTIAVASLGKGVACNPACFITQLLPVKRKLGFYEWTSRLRSHINPTGTVLLQLENTMQMSLKDLL
Absolute increase (% WT): 19.6 % WT
Relative increase: 1.3
Baseline α-Gal A activity (% WT): 72.8 ± 3.6 % WT
Baseline α-Gal A activity: 31871 ± 2599 nmol/mg/h
10 μM migalastat α-Gal A activity: 40310 ± 3345 nmol/mg/h
10 μM migalastat α-Gal A activity (% WT): 92.4 ± 5.1 % WT

B3: A309D (protein)
chain: MQLRNPELHLGCALALRFLALVSWDIPGARALDNGLARTPTMGWLHWERFMCNLDCQEEPDSCISEKLFMEMAELMVSEGWKDAGYEYLCIDDCWMAPQRDSEGRLQADPQRFPHGIRQLANYVHSKGLKLGIYADVGNKTCAGFPGSFGYYDIDAQTFADWGVDLLKFDGCYCDSLENLADGYKHMSLALNRTGRSIVYSCEWPLYMWPFQKPNYTEIRQYCNHWRNFADIDDSWKSIKSILDWTSFNQERIVDVAGPGGWNDPDMLVIGNFGLSWNQQVTQMALWAIMAAPLFMSNDLRHISPQAKDLLQDKDVIAINQDPLGKQGYQLRQGDNFEVWERPLSGLAWAVAMINRQEIGGPRSYTIAVASLGKGVACNPACFITQLLPVKRKLGFYEWTSRLRSHINPTGTVLLQLENTMQMSLKDLL
Absolute increase (% WT): 17.6 % WT
Relative increase: 1.2
Baseline α-Gal A activity (% WT): 78.3 ± 5.2 % WT
Baseline α-Gal A activity: 31696 ± 3036 nmol/mg/h
10 μM migalastat α-Gal A activity: 38325 ± 2376 nmol/mg/h
10 μM migalastat α-Gal A activity (% WT): 95.8 ± 3.7 % WT

B4: L311I (protein)
chain: MQLRNPELHLGCALALRFLALVSWDIPGARALDNGLARTPTMGWLHWERFMCNLDCQEEPDSCISEKLFMEMAELMVSEGWKDAGYEYLCIDDCWMAPQRDSEGRLQADPQRFPHGIRQLANYVHSKGLKLGIYADVGNKTCAGFPGSFGYYDIDAQTFADWGVDLLKFDGCYCDSLENLADGYKHMSLALNRTGRSIVYSCEWPLYMWPFQKPNYTEIRQYCNHWRNFADIDDSWKSIKSILDWTSFNQERIVDVAGPGGWNDPDMLVIGNFGLSWNQQVTQMALWAIMAAPLFMSNDLRHISPQAKALIQDKDVIAINQDPLGKQGYQLRQGDNFEVWERPLSGLAWAVAMINRQEIGGPRSYTIAVASLGKGVACNPACFITQLLPVKRKLGFYEWTSRLRSHINPTGTVLLQLENTMQMSLKDLL
Absolute increase (% WT): 23.2 % WT
Relative increase: 2.9
Baseline α-Gal A activity (% WT): 12.1 ± 0.8 % WT
Baseline α-Gal A activity: 4020 ± 235 nmol/mg/h
10 μM migalastat α-Gal A activity: 11558 ± 781 nmol/mg/h
10 μM migalastat α-Gal A activity (% WT): 35.3 ± 3.1 % WT

B5: K308R (protein)
chain: MQLRNPELHLGCALALRFLALVSWDIPGARALDNGLARTPTMGWLHWERFMCNLDCQEEPDSCISEKLFMEMAELMVSEGWKDAGYEYLCIDDCWMAPQRDSEGRLQADPQRFPHGIRQLANYVHSKGLKLGIYADVGNKTCAGFPGSFGYYDIDAQTFADWGVDLLKFDGCYCDSLENLADGYKHMSLALNRTGRSIVYSCEWPLYMWPFQKPNYTEIRQYCNHWRNFADIDDSWKSIKSILDWTSFNQERIVDVAGPGGWNDPDMLVIGNFGLSWNQQVTQMALWAIMAAPLFMSNDLRHISPQARALLQDKDVIAINQDPLGKQGYQLRQGDNFEVWERPLSGLAWAVAMINRQEIGGPRSYTIAVASLGKGVACNPACFITQLLPVKRKLGFYEWTSRLRSHINPTGTVLLQLENTMQMSLKDLL
Absolute increase (% WT): 20.3 % WT
Relative increase: 1.3
Baseline α-Gal A activity (% WT): 68.9 ± 4.3 % WT
Baseline α-Gal A activity: 27103 ± 1767 nmol/mg/h
10 μM migalastat α-Gal A activity: 35824 ± 2438 nmol/mg/h
10 μM migalastat α-Gal A activity (% WT): 89.1 ± 4.5 % WT

B6: A309T (protein)
chain: MQLRNPELHLGCALALRFLALVSWDIPGARALDNGLARTPTMGWLHWERFMCNLDCQEEPDSCISEKLFMEMAELMVSEGWKDAGYEYLCIDDCWMAPQRDSEGRLQADPQRFPHGIRQLANYVHSKGLKLGIYADVGNKTCAGFPGSFGYYDIDAQTFADWGVDLLKFDGCYCDSLENLADGYKHMSLALNRTGRSIVYSCEWPLYMWPFQKPNYTEIRQYCNHWRNFADIDDSWKSIKSILDWTSFNQERIVDVAGPGGWNDPDMLVIGNFGLSWNQQVTQMALWAIMAAPLFMSNDLRHISPQAKTLLQDKDVIAINQDPLGKQGYQLRQGDNFEVWERPLSGLAWAVAMINRQEIGGPRSYTIAVASLGKGVACNPACFITQLLPVKRKLGFYEWTSRLRSHINPTGTVLLQLENTMQMSLKDLL
Absolute increase (% WT): 18.6 % WT
Relative increase: 1.2
Baseline α-Gal A activity (% WT): 74.1 ± 4.6 % WT
Baseline α-Gal A activity: 29214 ± 1907 nmol/mg/h
10 μM migalastat α-Gal A activity: 36228 ± 1841 nmol/mg/h
10 μM migalastat α-Gal A activity (% WT): 92.7 ± 4.8 % WT

B7: Q312E (protein)
chain: MQLRNPELHLGCALALRFLALVSWDIPGARALDNGLARTPTMGWLHWERFMCNLDCQEEPDSCISEKLFMEMAELMVSEGWKDAGYEYLCIDDCWMAPQRDSEGRLQADPQRFPHGIRQLANYVHSKGLKLGIYADVGNKTCAGFPGSFGYYDIDAQTFADWGVDLLKFDGCYCDSLENLADGYKHMSLALNRTGRSIVYSCEWPLYMWPFQKPNYTEIRQYCNHWRNFADIDDSWKSIKSILDWTSFNQERIVDVAGPGGWNDPDMLVIGNFGLSWNQQVTQMALWAIMAAPLFMSNDLRHISPQAKALLEDKDVIAINQDPLGKQGYQLRQGDNFEVWERPLSGLAWAVAMINRQEIGGPRSYTIAVASLGKGVACNPACFITQLLPVKRKLGFYEWTSRLRSHINPTGTVLLQLENTMQMSLKDLL
Absolute increase (% WT): 15.1 % WT
Relative increase: 4.6
Baseline α-Gal A activity (% WT): 4.1 ± 0.2 % WT
Baseline α-Gal A activity: 1365 ± 57 nmol/mg/h
10 μM migalastat α-Gal A activity: 6331 ± 466 nmol/mg/h
10 μM migalastat α-Gal A activity (% WT): 19.2 ± 1.7 % WT
